Laboratory results taken from patent US20100291114A1 (published 2010).
Residue numbers refer to the chain shown, from its start. Values belong to the molecule of their own block, whether it stands above or below them.

Legend:
[1] = target: human FGFR3 (isoform and construct not stated) (human) (UniProt P22607); assay: Scatchard analysis, radioiodinated antibody cell binding; UMUC-14 cells
[2] = target: human FGFR3 (isoform and construct not stated) (human) (UniProt P22607); assay: Scatchard analysis, radioiodinated antibody cell binding; KMS11 cells
[3] = target: human FGFR3 (isoform and construct not stated) (human) (UniProt P22607); assay: Scatchard analysis, radioiodinated antibody cell binding; OPM2 cells
[4] = target: human FGFR3 (isoform and construct not stated) (human) (UniProt P22607); assay: Scatchard analysis, radioiodinated antibody cell binding; RT112 cells
[5] = target: T1, His-tagged IgD2-D3 of human FGFR3-IIIb (human, UniProt P22607-2 143-374, limits assumed); assay: BIAcore SPR; antibody on CM5 chip, FGFR3-His protein injected
T1 construct: domain: IgD2-D3; also called FGFR3-IIIb-His protein; Human FGFR3 ECD IIIb; not shown: His tag
T1 sequence (looked up): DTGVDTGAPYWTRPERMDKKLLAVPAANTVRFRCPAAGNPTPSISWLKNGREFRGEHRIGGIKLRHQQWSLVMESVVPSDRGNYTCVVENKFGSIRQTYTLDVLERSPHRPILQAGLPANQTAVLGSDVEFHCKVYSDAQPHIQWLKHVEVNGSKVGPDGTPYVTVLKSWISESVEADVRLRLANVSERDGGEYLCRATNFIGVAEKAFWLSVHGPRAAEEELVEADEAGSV

[6] = target: T2, His-tagged IgD2-D3 of human FGFR3-IIIc (human, UniProt P22607 143-372); assay: as above
T2 construct: domain: IgD2-D3; also called FGFR3-IIIC-His protein; IIIc-His protein; not shown: His tag
T2 sequence: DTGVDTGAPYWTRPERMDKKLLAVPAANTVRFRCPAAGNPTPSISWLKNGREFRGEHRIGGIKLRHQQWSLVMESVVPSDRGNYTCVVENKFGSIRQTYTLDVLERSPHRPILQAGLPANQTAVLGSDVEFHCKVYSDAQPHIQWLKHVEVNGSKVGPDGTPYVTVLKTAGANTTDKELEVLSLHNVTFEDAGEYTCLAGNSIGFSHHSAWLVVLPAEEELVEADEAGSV

[7] = target: human FGFR3 (isoform and construct not stated) (human) (UniProt P22607); assay: cell-based or functional assay
[8] = target: T3, human FGFR3-IIIc ECD-human Fc chimeric protein (human, UniProt P22607 23-375); assay: competition ELISA; FGFR3-IIIc-Fc captured, antibody titrated, then FGF1 and heparin; competitor FGF1
T3 construct: extracellular domain; Made in CHO cells, purified on protein A; also called FGFR3-Fc chimeric protein; not shown: human Fc
T3 sequence (looked up): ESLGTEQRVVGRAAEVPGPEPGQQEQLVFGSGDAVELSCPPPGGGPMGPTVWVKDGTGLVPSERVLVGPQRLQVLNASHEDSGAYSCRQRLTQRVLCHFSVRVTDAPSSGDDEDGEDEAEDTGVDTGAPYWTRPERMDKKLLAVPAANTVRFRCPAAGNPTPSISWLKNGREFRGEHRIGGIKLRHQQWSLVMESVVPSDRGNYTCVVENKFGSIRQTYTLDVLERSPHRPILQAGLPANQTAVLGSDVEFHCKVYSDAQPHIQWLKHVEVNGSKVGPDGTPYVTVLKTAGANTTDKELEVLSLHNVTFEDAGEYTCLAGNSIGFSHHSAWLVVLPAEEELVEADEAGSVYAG

[9] = target: T2, His-tagged IgD2-D3 of human FGFR3-IIIc; assay: BIAcore SPR; R3 Ab on the chip, FGFR3-IIIc-His protein injected, 25 C
[10] = target: T3, human FGFR3-IIIc ECD-human Fc chimeric …; assay: competition ELISA; FGFR3-IIIc-Fc captured, antibody titrated, then FGF9 and heparin; competitor FGF9

Molecule: R3Mab
- Kd [1]: 0.34 nM
- Kd [2]: 0.35 nM
- Kd [3]: 0.64 nM
- Kd [4]: 0.16 nM

B1: anti-FGFR3 antibody clone 184.6.1 (antibody, V domains shown)
VH: EVQLVESGGGLVQPGGSLRLSCAASGFTFTSTGISWVRQAPGKGLEWVGRIYPTNGSTNYADSVKGRFTISADTSKNTAYLQMNSLRAEDTAVYYCARARTYGIYDLYVDYTEYVMDYWGQGTLV
VL: DIQMTQSPSSLSASVGDRVTITCRASQDVDTSLAWYQQKPGKAPKLLIYSASFLYSGVPSRFSGSGSGTDFTLTISSLQPEDFATYYCQQSTGHPQTFGQGTKVEIKR
- Kd [5]: 0.264 nM
- Kd [6]: 1.44 nM
- increased inhibitory activity in the Ba/F3-FGFR3 viability assay (fold greater than parent clone 184.6) [7]: 100

B4: anti-FGFR3 antibody clone 184.6 (antibody, V domains shown)
VH: B1 VH
VL: B1 VL with D30S, S32A, L33V, T92Y, G93T, H94T, Q96P
notes: The tie to the clone name is indirect
- Kd [5]: 38 nM
- Kd [6]: 110 nM

Second part, led by results:

- Kd [5]: 0.12 nM
- Kd [6]: 2.24 nM
B2: anti-FGFR3 antibody clone 184.6.62 (antibody, V domains shown)
VH: B1 VH with T30S, S31T, T54L, N55Y, N59H
VL: B1 VL with D30S, S32A, L33V, S91T, T92Y, G93T, H94T, P95S, Q96L
- increased inhibitory activity in the Ba/F3-FGFR3 viability assay (fold greater than parent clone 184.6) [7]: 100

- IC50 [8]: 1.7 nM
- Kd [9]: 3.52 nM
- koff [9]: 0.00032 s⁻¹
- kon [9]: 91000 M⁻¹ s⁻¹
- IC50 [10]: 1.3 nM
B3: anti-FGFR3 antibody clone 184.6.1N54S (antibody, V domains shown)
VH: B1 VH with N55S
VL: B1 VL

- Kd [5]: 0.19 nM
- Kd [6]: 0.88 nM
B5: anti-FGFR3 antibody clone 184.6.58 (antibody, V domains shown)
VH: B1 VH
VL: B1 VL with T31I, F53S, Y55A, S91G, T92A, H94N, Q96Y
- increased inhibitory activity in the Ba/F3-FGFR3 viability assay (fold greater than parent clone 184.6) [7]: 100
